Data published in patent US9724426B2, “Agents, uses and methods” (AFFINICON APS, priority 2009, dated 2017).
Changes are numbered by the printed parent chain. Each block holds one molecule with its values, some of them ahead of it.

How the values were obtained:
[1] = system: LPS mediated TNFα stimulation; assay: Rat in vivo LPS model; set-up: species or system Lewis rats; conditions: i.v., challenged with LPS; 2 hours post LPS
[2] = system: collagen-induced arthritis
Experimental: The effect of dexamethasone on arthritis development in the rat CIA model was tested at three dosages (0.01, 0.1 and 1 mg/kg). Dexamethasone was administered intravenously on day 10 (day of disease onset), 13, 16 and 19. Dexamethasone conjugate produced as described in Example 5 was tested at 0.01 mg/kg using the same treatment regimen as for dexamethasone. Treatment with vehicle (PBS/2.5% EtOH) served as negative control. Rats were sacrificed 21 days after immunization.
Collagen arthritis was induced in 9 weeks old female Lewis rats using a two-step immunization protocol. […]
Rats were evaluated 6 times per week (once during weekends) for arthritis severity using a macroscopic scoring system of 0-4 for each paw as detailed below: • 0=no signs of arthritis • 0.5=unloading of the paw and/or light redness of ankle joint • 1=redness and mild swelling of the ankle joint • 2=redness and swelling of paw • 3=severe redness and swelling of entire paw including digits • 4=maximally swollen paw, often involvement of multiple joints and extending towards knee joint.
The total clinical score of an individual rat is defined as the sum of the clinical scores of all four paws for each day. At the end of the study, the cumulative arthritis score was calculated for each rat. […]
The swelling of the hind paws was measured during weekdays with a laser scan micrometer (Mitutoyo, LSM-503S/6200). […]

CD163 [3] = target: T1, CD163 (Homo sapiens, UniProt Q86VB7); assay: ELISA antibody reactivity comparison; format: binding
T1 sequence (Q86VB7 42-1156): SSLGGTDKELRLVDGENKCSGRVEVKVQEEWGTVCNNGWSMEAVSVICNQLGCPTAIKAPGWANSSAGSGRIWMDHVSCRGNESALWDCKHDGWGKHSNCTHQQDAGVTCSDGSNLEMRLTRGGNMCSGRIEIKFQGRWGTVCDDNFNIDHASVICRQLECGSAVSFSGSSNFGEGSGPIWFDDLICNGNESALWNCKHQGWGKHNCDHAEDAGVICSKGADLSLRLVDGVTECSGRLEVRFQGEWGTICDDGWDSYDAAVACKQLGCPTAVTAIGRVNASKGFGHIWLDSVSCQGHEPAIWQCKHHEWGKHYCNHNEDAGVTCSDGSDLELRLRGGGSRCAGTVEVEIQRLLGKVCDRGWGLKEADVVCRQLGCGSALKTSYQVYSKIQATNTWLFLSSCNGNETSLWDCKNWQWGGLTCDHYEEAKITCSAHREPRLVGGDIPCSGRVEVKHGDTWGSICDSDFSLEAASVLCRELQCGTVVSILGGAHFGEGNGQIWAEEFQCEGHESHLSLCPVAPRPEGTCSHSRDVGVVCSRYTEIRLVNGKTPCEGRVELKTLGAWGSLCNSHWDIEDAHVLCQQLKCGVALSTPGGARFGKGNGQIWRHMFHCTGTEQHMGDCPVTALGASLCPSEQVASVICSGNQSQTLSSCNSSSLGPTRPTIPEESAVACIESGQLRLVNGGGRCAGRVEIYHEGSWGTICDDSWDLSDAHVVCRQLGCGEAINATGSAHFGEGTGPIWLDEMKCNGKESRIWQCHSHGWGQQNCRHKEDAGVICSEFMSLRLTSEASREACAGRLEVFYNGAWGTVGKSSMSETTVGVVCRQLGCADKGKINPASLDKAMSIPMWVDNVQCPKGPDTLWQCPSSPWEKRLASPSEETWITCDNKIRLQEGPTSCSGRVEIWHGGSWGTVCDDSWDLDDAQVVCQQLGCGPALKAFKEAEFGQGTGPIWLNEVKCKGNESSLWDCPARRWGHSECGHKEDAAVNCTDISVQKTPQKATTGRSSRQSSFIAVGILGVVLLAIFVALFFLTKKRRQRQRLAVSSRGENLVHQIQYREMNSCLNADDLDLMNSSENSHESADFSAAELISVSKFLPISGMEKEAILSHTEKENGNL
Experimental: A nunc maxisorp plate was coated with the following (50 μl/well) over night at 4° C.: 4 μg/ml goat anti-human kappa chain antibody (AbD Serotec, Oxford, UK) and ˜4 μg/ml human CD163 (purified as described in 8). Buffer was carbonate buffer, pH 9.0. Each measurement was made in duplicate.
4) After blocking, the primary antibody was added (100 μl per well).
For CD163 ELISA • 100 μl/well of goat anti human IgG (H&L) HRP 1:6000 in PBS containing 1% BSA. • For Mac2-158 goat anti-mouse HRP 1:2000 in PBS containing 1% BSA is added to the wells 7) Step 1 was repeated 8) The ELISA was developed by adding 75 μl of TMB substrate to each well. Incubation was performed for 3 min. 9) The reaction was stopped by adding 30 μl 2 NH2SO4 to the wells. 10) The plate was read in an ELISA reader at 450 nm.
Background was measured on wells with no coating and wells with no primary antibody.

CD163 [4] = target: T1, CD163; assay: Fab fragment activity measured by ELISA; format: binding
Experimental: A nunc maxisorp plate was coated with ˜1 μg/ml human CD163 (purified as described by Kristiansen, M. et al. ((2001). Identification of the haemoglobin scavenger receptor. Nature 11:409(6817): 198-201)) was added at 50 μl/well and incubated over night at 4° C. Buffer for coating was carbonate, pH 9.0. Each measurement was made in duplicates.
The primary antibody samples used in ELISA was undiluted supernatant or 30 times concentrated supernatant from transfected cells or antibody standard 100 ng/ml KN2/NRY antibody diluted in PBS containing 1% BSA. The supernatant was concentrated on VIVAspin centrifugal concentrator (10.000 MWCO) (Sigma-Aldrich, Brøondby, Denmark).
The ELISA steps were as follows: ELISA plates were washed 3 times in PBS and blocked with PBS containing 3% BSA for 1 h. After blocking the primary antibody samples were added to the wells (100 μl/well). 2 fold dilution series were made on all samples and standards (dilutions in PBS containing 1% BSA). The samples were incubated on the plates for 1 h. Subsequently, the plates were washed 3 times in PBS and secondary antibody goat anti human kappa chain HRP (AbD Serotec, Oxford, UK) 1:4000 in PBS containing 1% BSA (100 μl/well) was added to the wells. […] The plates were read in an ELISA reader at 450 nm.
Background was measured on both wells with no coating and wells with no primary antibody.

CD163 [5] = target: T1, CD163; assay: scFv ELISA; format: binding; conditions: two-fold dilution series
Experimental: A nunc Maxisorp ELISA plate (NUNC, Roskilde, Denmark) was coated with 50 μl/well of 2 μg/ml of CD163 (purified as described in (2)) over night at 4° C. The coated plate was washed 3 times in PBS and blocked for 1 hour with 3% BSA in PBS. Fractions from scFv purification were tested by adding 100 μl/well of a 1:10 dilution of each sample in 1% BSA, PBS. The refolded protein sample was added directly to the wells (100 μl/well) and two-fold dilution series was made with dilution in 1% BSA in PBS. After 1 hour incubation at 4° C. the plate was washed 3 times in PBS again. Secondary detection was made with a 1 hour incubation of a HRP conjugated anti-His antibody (Sigma-Aldrich, Brøondby, Denmark) (1:4000 diluted in 1% BSA, PBS). After washing 3 times in PBS the ELISA was developed with […] TMB substrate (Invitrogen, Taastrup, Denmark). The reaction was stopped with 40 μl/well of 1 M H2SO4 and the plate was read in an ELISA reader at 450 nm.

Molecule: CC1(C)O[C@@H]2C[C@H]3[C@@H]4C[C@H](F)C5=CC(=O)C=C[C@]5(C)[C@@]4(F)[C@@H](O)C[C@]3(C)[C@]2(C(=O)CO)O1 [fluocinolone, Fluocinolone acetonide]
TNFα level, lower compared to vehicle [1]: 5 times

spleen and liver weights compared to the vehicle group ([2]; 0.01, 0.1 and 1 mg/kg groups): No significant differences
thymus weight compared to the vehicle group ([2]; 0.1 and 1 mg/kg groups, at sacrifice day 21): significantly decreased
Molecule: C[C@@H]1C[C@H]2[C@@H]3CCC4=CC(=O)C=C[C@]4(C)[C@@]3(F)[C@@H](O)C[C@]2(C)[C@@]1(O)C(=O)CO [dexamethasone]

amount of antibody in sample to obtain the same reactivity as cgamma(6)/NRY (CD163 [3]): approximately twice as much antibody
reactivity towards CD163 in ELISA (CD163 [3]; supernatant from transiently transfected CHO-S cells): almost identical
B1: cgamma(6)/K8: chimeric heavy chain cgamma(6) paired with humanized light chain K8 (antibody)
VH: DVQLQESGPGLVKPSQSLSLTCTVTGYSITSDYAWNWIRQFPGNKLEWMGYITYSGITNYNPSLKSQISITRDTSKNQFFLQLNSVTTEDTATYYCVSGTYYFDYWGQGTTLTVSS
light: DIVMTQSPSSLSASVGDRVTITCRASQSVSSDVAWFQQKPGKSPKPLIYYASSLQSGVPSRFSGSGSGTDFTLTISSLQAEDFAVYFCGQDYTSPRTFGGGTKLEIKRTVAAPSVFIFPPSDEQLKSGTASVVCLLNNFYPREAKVQWKVDNALQSGNSQESVTEQDSKDSTYSLSSTLTLSKADYEKHKVYACEVTHQGLSSPVTKSFNRGEC

ELISA signal (CD163 [4]; undiluted, non-concentrated supernatant): very small signal
B2: Fab fragment: Fab of KN2/NRY: heavy chain KN2 with P220 mutated to stop, SEQ ID NO: 82, with light chain NRY (antibody)
heavy: QVQLQESGPGLVKPSETLSLTCTVSGYSITSDYAWNWIRQFPGNKLEWMGYITYSGSTYYNPSLKSRVTISVDTSKNQFSLKLSSVTAADTATYYCVSGTYYFDYWGQGTTLTVSSASTKGPSVFPLAPCSRSTSESTAALGCLVKDYFPEPVTVSWNSGALTSGVHTFPAVLQSSGLYSLSSVVTVPSSSLGTKTYTCNVDHKPSNTKVDKRVESKYG
light: B1 light with S53N, L54R, Q55Y
ELISA signal and dilution series (CD163 [4]; 30× concentrated supernatant, standard 100 ng/ml KN2/NRY): comparable to the standard dilution series

dilution down to which signals were detected (CD163 [5]): 128 fold
B3: scFv: scFv (VH-15 residue linker-VL), SEQ ID NO: 77, expressed in E. coli and refolded (protein)
scFv: MDQVQLQESGPGLVKPSETLSLTCTVSGYSITSDYAWNWIRQFPGNKLEWMGYITYSGSTYYNPSLKSRVTISVDTSKNQFSLKLSSVTAADTATYYCVSGTYYFDYWGQGTTLTVSSGGGGSGGGGSGGGGSDIVMTQSPSSLSASVGDRVTITCRASQSVSSDVAWFQQKPGKSPKPLIYYASNRYSGVPSRFSGSGSGTDFTLTISSLQAEDFAVYFCGQDYTSPRTFGGGTKLEIKREQKLISEEDL
modifications: scFv sequence
